One test deals with Gal4:rLG2 (rice (Oryza sativa L)). In words: cell-based or functional assay.
The next test has as its target Gal4:rTGA2.1 (rice (Oryza sativa L)). In words: cell-based or functional assay.

B1: YN:NH1 (natural protein, rice (Oryza sativa L), UniProt Q9FDY4 1-582, looked up)
chain: MEPPTSHVTNAFSDSDSASVEEGGADADADVEALRRLSDNLAAAFRSPEDFAFLADARIAVPGGGGGGGDLLVHRCVLSARSPFLRGVFARRAAAAAGGGGEDGGERLELRELLGGGGEEVEVGYEALRLVLDYLYSGRVGDLPKAACLCVDEDCAHVGCHPAVAFMAQVLFAASTFQVAELTNLFQRRLLDVLDKVEVDNLLLILSVANLCNKSCMKLLERCLDMVVRSNLDMITLEKSLPPDVIKQIIDARLSLGLISPENKGFPNKHVRRIHRALDSDDVELVRMLLTEGQTNLDDAFALHYAVEHCDSKITTELLDLALADVNHRNPRGYTVLHIAARRREPKIIVSLLTKGARPADVTFDGRKAVQISKRLTKQGDYFGVTEEGKPSPKDRLCIEILEQAERRDPQLGEASVSLAMAGESLRGRLLYLENRVALARIMFPMEARVAMDIAQVDGTLEFNLGSGANPPPERQRTTVDLNESPFIMKEEHLARMTALSKTVELGKRFFPRCSNVLDKIMDDETDPVSLGRDTSAEKRKRFHDLQDVLQKAFHEDKEENDRSGLSSSSSSTSIGAIRPRR
As to B1, in the test with Gal4:rLG2, the “UAS-Luc reporter (Luc/Gus) in rice protoplasts: Gal4:rLG2 with untagged NH1 (Ubi-NH1) against Gal4:rLG2 alone (Figure 1)” value was around 2 fold and the “UAS-Luc reporter (Luc/Gus) in rice protoplasts: Gal4:rLG2 with untagged NH1 (Ubi-NH1) against Gal4:rLG2 alone (Figure 4A)” value was around 3 fold. In the test with Gal4:rTGA2.1, the “UAS-Luc reporter (Luc/Gus) in rice protoplasts: Gal4:rTGA2.1 with untagged NH1 (Ubi-NH1) against Gal4:rTGA2.1 alone” value was around 2 fold.

For the origin of these results see article PMC3297495, “A rice transient assay system identifies a novel domain in NRR required for interaction with NH1/OsNPR1 and inhibition of NH1-mediated transcriptional activation” (Plant Methods, 2012).
